± gives the uncertainty stated by the source.
Assay: protein stability index of a GFP-peptide fusion (yeast GPS) (PSI 1-4); higher = more stable; sorted into four equal gates, so the index is relative within each strain
Procedure, shortened: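 Plasmids in a pooled yeast library fused tiled 17-residue yeast protein peptides downstream of GFP and also expressed Cherry. Mid-log cultures grown without leucine were sorted into four equal gates by GFP/Cherry fluorescence ratio. Each gate's plasmids were PCR-amplified and Illumina-sequenced, and reads were matched to strains by barcodes. The protein stability index is derived by multiplying each gate's read frequency by its gate number and summing the results.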

Row | Sequence | protein stability index (doa10∆) | protein stability index (pdr5∆) | protein stability index (san1∆) | protein stability index (ubr1∆)
1 | LYNDNNKNNNNRHNLLN [SWI1] | 3.08 ± 0.1 | 1.96 ± 0.062 | 1.95 ± 0.065 | 2.4 ± 0.047
2 | LYPSFKPIYKDTRFGGR [SSN2] | 3.17 ± 0.15 | 3.16 ± 0.087 | 3.1 ± 0.047 | 3.41 ± 0.14
3 | LYSYLIKENFFERIMIL [YJL039C/NUP192] | 1.48 ± 0.063 | 1.42 ± 0.073 | 1.49 ± 0.2 | 1.26 ± 0.11
4 | MAAQKSFRIKQKMAKAK [RPL39] | 2.75 ± 0.072 | 2.97 ± 0.11 | 2.25 ± 0.083 | 2.74 ± 0.08
5 | MAFEASAAAAGNRNSSS [BRR2] | 3.12 ± 0.11 | 3.1 ± 0.11 | 2.35 ± 0.12 | 3.14 ± 0.11
6 | MAGLSFDNYQRNNFLAE [PUP1] | 3.61 ± 0.17 | 3.58 ± 0.1 | 3.29 ± 0.084 | 3.39 ± 0.092
7 | MAHFKEYQVIGRRLPTE [RPL20A] | 2.21 ± 0.071 | 2.07 ± 0.061 | 1.4 ± 0.1 | 2.4 ± 0.047
8 | MAKFLKAGKVAVVVRGR [RPL27A] | 1.53 ± 0.093 | 1.67 ± 0.057 | 1.57 ± 0.14 | 1.54 ± 0.092
9 | MAKRVADAQIQRETYDS [YLR335W/NUP2] | 2.21 ± 0.22 | 2.7 ± 0.14 | 2.08 ± 0.12 | 2.21 ± 0.1
10 | MANDLVQARDNSQVFGV [RPS14B] | 2.39 ± 0.076 | 2.36 ± 0.061 | 2.81 ± 0.049 | 2.97 ± 0.063
11 | MANLSQIYTQRAYMRPL [SCL1] | 1.66 ± 0.06 | 1.46 ± 0.074 | 1.47 ± 0.12 | 1.54 ± 0.043
12 | MAREHAPSIIFMDEIDS [RPT6] | 2.14 ± 0.073 | 2.11 ± 0.077 | 2.54 ± 0.099 | 2.42 ± 0.059
13 | MARYGATSTNPAKSASA [RPL17A] | 2.59 ± 0.056 | 2.91 ± 0.064 | 2.31 ± 0.09 | 2.9 ± 0.048
14 | MASTAVMMDVDSSGVND [RPN3] | 3.17 ± 0.19 | 3.51 ± 0.2 |  | 3.26 ± 0.091
15 | MAYTSHLSSKTGLHFGR [QCR10] | 3.08 ± 0.16 | 2.78 ± 0.087 | 2.69 ± 0.089 | 2.76 ± 0.066
16 | MDDEEWRSKRIEQLFPV [RPC53] | 3.24 ± 0.085 | 2.31 ± 0.055 | 2.89 ± 0.049 | 2.37 ± 0.041
17 | MDLFMSTLGDCLGIKDE [GAL11] | 3.54 ± 0.25 |  | 3.38 ± 0.16 | 3.22 ± 0.2
18 | MDNKTPVTLAKVIKVLG [RPS28A] | 1.16 ± 0.12 | 1.77 ± 0.22 | 1.16 ± 0.27 | 2.55 ± 0.27
19 | MDRTQTFIKDCLFTKCL [POP4] | 1.75 ± 0.05 | 1.75 ± 0.056 | 1.7 ± 0.1 | 1.94 ± 0.044
20 | MDWLDNWGRKEHDLLRQ [ITC1] | 3.22 ± 0.19 | 3.33 ± 0.26 | 3.48 ± 0.13 | 
21 | MERLQRLMMNSKVGSAD [RPN11] | 3.28 ± 0.15 | 2.98 ± 0.17 | 3.42 ± 0.097 | 3.22 ± 0.12
22 | MEYLKSSKSLDLNTRIS [RPN5] | 2.83 ± 0.057 | 1.69 ± 0.051 | 2.34 ± 0.063 | 2.61 ± 0.055

Row | Sequence | protein stability index (doa10∆) | protein stability index (pdr5∆) | protein stability index (san1∆) | protein stability index (ubr1∆)
23 | MFHGAKGPLLIERIGHL [PCI8] | 2.5 ± 0.22 |  |  | 
24 | MFILSKIADLVRIPPDQ [RPC25] |  | 2.69 ± 0.22 |  | 
25 | MGGIREKKAEYFAKLRE [RPP0] | 3.48 ± 0.081 | 3.37 ± 0.082 | 3.13 ± 0.061 | 3.55 ± 0.095
26 | MGGPKQKGITSYAVSPY [QCR8] | 2.46 ± 0.17 | 2.45 ± 0.2 | 2.25 ± 0.12 | 1.63 ± 0.21
27 | MGGVSALRGMFKDRFKD [FAS2] | 3.56 ± 0.068 | 3.55 ± 0.067 | 3.41 ± 0.059 | 3.54 ± 0.069
28 | MGIVQDTLCGIRKLTLR [RPO21] | 2.89 ± 0.068 | 1.74 ± 0.053 | 1.87 ± 0.068 | 1.64 ± 0.053
29 | MGKKTFREWQYFKLSIT [POP8] | 1.5 ± 0.046 | 1.76 ± 0.045 | 1.47 ± 0.099 | 1.71 ± 0.042
30 | MGKRVDFSARTVISGDP [RPO21] | 2.98 ± 0.087 | 3.27 ± 0.12 | 3.08 ± 0.14 | 3.1 ± 0.19
31 | MGQGLCNNINKGLKEND [BRR2] | 3.13 ± 0.095 | 3.57 ± 0.15 | 3.2 ± 0.071 | 3.39 ± 0.1
32 | MHDSNLQNNSDSESDSD [SKP1] | 2.94 ± 0.11 | 3.18 ± 0.078 | 3.06 ± 0.056 | 3.02 ± 0.068
33 | MHKQLAYILAAQKTSFE [RPN1] | 2.37 ± 0.056 | 2.46 ± 0.064 | 2.29 ± 0.067 | 2.43 ± 0.063
34 | MHRPVHFLQFSELAGDE [PRP8] | 3.23 ± 0.081 | 3.15 ± 0.084 | 2.88 ± 0.059 | 3.05 ± 0.06
35 | MIIDEGHRMKNAQSKLS [SNF2] | 1.45 ± 0.072 | 1.98 ± 0.061 | 1.67 ± 0.089 | 1.93 ± 0.089
36 | MINGVYYNEISRDLDIS [POP6] | 2.09 ± 0.26 | 1.21 ± 0.14 |  | 1.76 ± 0.12
37 | MITKRILEVGALASIQT [RPN12] | 1.63 ± 0.083 |  | 2.14 ± 0.22 | 
38 | MIVPVRCFSCGKVVGDK [RPB10] | 2.64 ± 0.17 | 2.59 ± 0.12 | 2.13 ± 0.1 | 2.66 ± 0.092
39 | MKYAVSKTSENKVSNTV [SIR2] | 2.99 ± 0.13 | 3.16 ± 0.062 | 3.15 ± 0.091 | 2.98 ± 0.052
40 | MLRRHAAPPSTNFEILN [DIS3] | 1.87 ± 0.11 | 1.8 ± 0.1 | 1.71 ± 0.18 | 2.93 ± 0.074
41 | MMVNISVLISIPLDNYD [PCI8] | 1.43 ± 0.038 | 1.42 ± 0.044 | 1.72 ± 0.065 | 1.41 ± 0.037
42 | MNVSTSTFQTRRRRLKK [RPB4] | 3.39 ± 0.2 | 3.43 ± 0.13 |  | 3.38 ± 0.14
43 | MNYLLDNKINEIKLLEI [CSI1] | 2.91 ± 0.12 | 2.81 ± 0.098 | 2.67 ± 0.069 | 2.89 ± 0.091

From the supplement of paper PMC9732359
